Measured values from US20080267971A1.
Each block holds one binder with its values, some of them ahead of it.

Key:
[1] = biological target: Mouse/Human chimeric Ang-2 with the human StuI-TfiI fragment (mouse/human chimera) (UniProt O35608); test: ELISA
[2] = biological target: Mouse/Human Ang-2 StuI chimeric molecule (mouse; human) (UniProt O35608); test: ELISA
[3] = biological target: human Ang-2443 (human) (UniProt O15123); test: ELISA
[4] = biological target: human Ang-2 H375Q (human) (UniProt O15123); test: ELISA
[5] = biological target: T1, Human Ang-1/2 BsmI chimeric molecule (human); test: ELISA
T1 sequence: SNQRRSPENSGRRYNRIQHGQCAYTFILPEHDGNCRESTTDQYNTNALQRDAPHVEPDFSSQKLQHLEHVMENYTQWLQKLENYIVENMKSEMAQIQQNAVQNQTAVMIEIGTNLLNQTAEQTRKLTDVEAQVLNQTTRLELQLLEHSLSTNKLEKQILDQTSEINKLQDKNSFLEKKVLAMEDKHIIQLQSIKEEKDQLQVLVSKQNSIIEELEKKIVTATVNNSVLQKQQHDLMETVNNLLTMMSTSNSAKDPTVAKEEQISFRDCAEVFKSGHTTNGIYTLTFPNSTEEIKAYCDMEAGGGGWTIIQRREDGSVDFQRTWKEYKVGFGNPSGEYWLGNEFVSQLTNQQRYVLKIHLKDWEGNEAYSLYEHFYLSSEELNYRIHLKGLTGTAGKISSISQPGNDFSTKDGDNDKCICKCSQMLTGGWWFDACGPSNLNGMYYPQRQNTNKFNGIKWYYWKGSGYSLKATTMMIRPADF

[6] = biological target: human Ang-2 V345M (human) (UniProt O15123); test: ELISA
[7] = biological target: human Ang-2 changed at positions 365 and 367 (human) (UniProt O15123); test: ELISA
[8] = biological target: human Angiopoietin-2 (human) (UniProt O15123); test: inhibition of rhAng-2 binding to its receptor
[9] = biological target: mouse Angiopoietin-2 (mouse) (UniProt O35608); test: ELISA; member tied by Table 16

% of binding to human Ang-2 [1]: 100% | % of binding to human Ang-2 [2]: 100% | % of binding to human Ang-2 [3]: 100% | % of binding to human Ang-2 [4]: 100% | % of binding to human Ang-2 [5]: 100% | % of binding to human Ang-2 [6]: 100% | % of binding to human Ang-2 [7]: 100% | OD650 in inhibition assay [8]: 0.069 OD650 | % of immunoreactivity on human Ang-2 [9]: 100%
B1: mAb 5.2.1 (antibody, part only; not given: light chain, V domains shown, part only)
VH: QVQLVESGGGVVQPGRSLRLSCAASGFTFSSYGMHWVRQAPGKGLEWVAVIWFDGFNKYYADSVKGRFTISRDNSKNTLYLQMNSLRAEDTAVYHCARDRGYSGYDHYYGMDVWGQGTTVTVSSA

% of binding to human Ang-2 [1]: 31% | % of binding to human Ang-2 [2]: 100% | % of binding to human Ang-2 [3]: 100% | % of binding to human Ang-2 [4]: 100% | % of binding to human Ang-2 [5]: 100% | % of binding to human Ang-2 [6]: 100% | % of binding to human Ang-2 [7]: 100% | OD650 in inhibition assay [8]: 0.0588 OD650
B2: mAb 3.28.1 (antibody, part only; not given: light chain, V domains shown, part only)
VH: EVQLVESGGGLVQPGGSLRLSCAASGFTFSSSWMSWVRQAPGKGLEWVANIKQDGSDKYYVDSVKGRFTISRDNAKNSLYLQMNSLRAEDTAVYYCVRDKGSGWFDYWGQGTLVTVSSA

% of binding to human Ang-2 [7]: 100%
B3: mAb 5.39.1 (antibody, V domains shown)
VH: QVQLVQSGAEVTKPGASVKVSCKASGYTFTAYHMYWVRQAPGQGLEWMGWINPNSGGTNYAQKFQGRVTMTRDTSISTAYMELSRLRSDDSPVYYCARDQGIAAAGPFDYWGQGTLVTVSS
VL: EIVMTQSPATLSVSPGDRATLSCRASQSVSSNFAWYQQKPGQAPRLLIYGSSTRATGIPARFSGSGSGTEFTLTISSLQSEDFAVYYCQQYHYWWTFGQGTKVEFKR

% of binding to human Ang-2 [7]: 100%
B4: mAb 5.88.3 (antibody, V domains shown)
VH: EVQMVESGGGLVQPGGSLRLSCAASGFTLRSYWMSWVRQAPGKGLEWVANIKEDGSEKYHVDSVKGRFTISRDNAENSLFLQMSSLRAEDTAVYYCARDMEASAGLFDYWGQGTLVTVSS
VL: EIVMTQSPATLSVSPGERAILSCRASQSISSNLAWYQQKPGQAPRLLIYGASTRATGIPARFSGSGSGTEFTLTISSLQSEDFAVYYCQQYNYWWTFGQGTKVEIKR

% of binding to human Ang-2 [7]: 100%
B5: mAb 3.3.2 (antibody, V domains shown)
VH: EVQLVESGGGLVQPGGSLRLSCAVSGFTFSSYWMSWVRQAPGKGLEWVANIKQDGSEKYYVDSVKGRFTISRDNAKNSLYLQMNSLRAEDTAVYYCARDQGIAVAGPFDYWGQGTLVTVSS
VL: EIVMTQSPATLSVSPGERATLSCRASQTVSSDLAWYQQKPGQAPRLLIYGASIRATGIPARFSGSGSGTEFTLTISSLQSEDFAVYSCQQYYNWWTFGQGTKVEIKR

% of binding to human Ang-2 [7]: 100%
B6: mAb 5.86.1 (antibody, V domains shown)
VH: QVQLVQSGAEVKKPGASVKVSCKASGYTFTGYHMYWVRQAPGQGLEWLGWINPNSGGTNYAQKFQGRVTMTRDTSISTAYMELSRLRSDDTAVYYCVRDQGIAAAGPFDYWCQGTLVTVSS
VL: DIRMTQSPSSLSASVGDRVTITCRASQRISTYLNWYQQKPGKAPKFLIYAASSLQSGVPSRFSGSGSGTDFTLTISSLQPEDFATYYCQQSYTTPFTFGPGTKVDIKR

% of binding to human Ang-2 [7]: 100%
B7: mAb 5.62.1 (antibody, V domains shown)
VH: EVQLVESGGGLVQPGGSLRLSCAASGFTFSSYWMSWVRQAPGKGLEWVANIKQDGSEKYYVDSVKGRFTISRDNAKNSLYLQMNSLRAEDTAVYYCARDPGIAVAGPFDYWGQGTLVTVSS
VL: EIVMTQSPATLSVSPGERATLSCRASQSVSSNLAWYQQKPGQAPRLLIYGAFTRATGIPARFSGSGSGTEFTLTISSLQSEDFAVYYCQQYNHWWTFGQGTKVGIKR

% of binding to human Ang-2 [7]: 100%
B8: mAb 5.28.1 (antibody, V domains shown)
VH: EVQLVESGGIVVQPGGSLRLSCAASGFTFDDYTMHWVRQTPGKGLEWVSLISWDGGSTYYADSVKGRFTISRDNSKNSLYLQMNSLRTEDTALYYCAKDIDIAVAGTGFDHWGQGTLVTVSS
VL: EIVMTQSPATLSVSPGERATLSCRASQSVTSNLAWYQQKPGQAPRLLIYGALIRATGIPARFSGSGSGTEFTLTISSLQSEDFAVYYCQQYNNWPFTFGPGTKVDIKR

% of binding to human Ang-2 [7]: 100%
B9: mAb 6.3.1 (antibody, V domains shown)
VH: QVQLVQSGAEVKKPGASVKVSCKASGYTFTGYFMHWVPQAPGQGLEWMGWINPNSGGTNYAQNFQGRVTMTRDTSISTAYMELSRLRSDDTPVYYCARDPWQNWNSYFDYWGQGTLVTVSS
VL: DIQMTQSPSSLSASVGDRVTITCRASQSIRSYLNWYQQKPGKAPKVLIYAASSLQSGVPSRFSGSGSGTDFTLTISSLQPEDFATYYCQQSYSTLCSFGQGTKLEIKR
